Laboratory results as given in paper PMC5965843, “Structural study reveals the temperature-dependent conformational flexibility of Tk-PTP, a protein tyrosine phosphatase from Thermococcus kodakaraensis KOD1” (PLoS ONE, 2018).

System: Cc1cc(=O)oc2c(F)c(OP(=O)(O)O)c(F)cc12
Assay: purified protein
Conditions: 60°C (active form II), pH 5.0 sodium citrate, 200 mM NaCl, 5 mM dithiothreitol

Molecule	Km [µM]	kcat [s⁻¹]
Tk-PTP (Thermococcus kodakarensis KOD1)	276	30.0
Tk-PTP (Thermococcus kodakarensis KOD1; E132Q)	150 ± 62	8.82 ± 0.13
Tk-PTP (Thermococcus kodakarensis KOD1; R124A)	301 ± 109	1.59 ± 0.65
Tk-PTP (Thermococcus kodakarensis KOD1; Q136A)	135 ± 16	0.460 ± 0.015
Tk-PTP (Thermococcus kodakarensis KOD1; E132L)	251 ± 423	2.97 ± 0.15
Tk-PTP (Thermococcus kodakarensis KOD1; R124E)	258 ± 43	0.188 ± 0.052
Tk-PTP (Thermococcus kodakarensis KOD1; E132A)	23 ± 8.4	3.83 ± 0.14
Tk-PTP (Thermococcus kodakarensis KOD1; D63A)	27.4 ± 10.6	1.29 ± 0.047
Tk-PTP (Thermococcus kodakarensis KOD1; G95A)	106 ± 10	35.8 ± 0.7
Tk-PTP (Thermococcus kodakarensis KOD1; D63N)	252 ± 50	2.92 ± 0.15

Target: T1, Tk-PTP (Thermococcus kodakarensis, UniProt Q8X270)
T1 construct: recombinant, E. coli BL21(DE3) RIL; codon-optimized gene; wild type in pET28a, N-terminal His6-tag removed by thrombin; mutants in pET21a, Ni-NTA purified; P-loop HC93MGGLGR99
Assay: X-ray crystal structure, […] Å
Type: binding
Conditions: active site (P-loop); protein heated at 60°C for 3 h with sodium vanadate at 1:3 molar ratio

Molecule	X-ray crystal structure, 1.8 Å
[O]=[V]([OH])([OH])[OH] [vanadate]	Vanadate is anchored in the active site of Tk-PTP(form II)
